Test results published in patent US20240279845A1, “METHOD FOR PREPARING A LIBRARY OF PEPTIDES OR A PEPTIDE” (ECOLE POLYTECHNIQUE FEDERALE DE LAUSANNE (EPFL), priority 2021, published 2024).

Substrate: Cc1cc(=O)oc2cc(NC(=O)[C@H](CCCNC(=N)N)NC(=O)CNC(=O)[C@H](CCC(N)=O)NC(=O)OC(C)(C)C)ccc12
Assay: Substrate KM for protease screen, FXII
Format: biochemical
Conditions: other: FXII
Procedure: Crude macrocyclic libraries (4 mM DMSO stocks in 384-well LDV plates were transferred into 1536-well microtiter OptiPlates via ADE. Applied buffered solutions were prepared by filtration through PTFE syringe filters (0.22 μm) and assays were initiated by addition of protease (4.41 μl/well) in appropriate buffer (see list below) supplemented with bovine serum albumin (BSA; 0.1% w/v) and dispensed using a CERTUS automated liquid handler. Plates were incubated for 10 min at ambient temperature before fluorogenic substrate in appropriate buffer (4.5 μl) was added using a CERTUS automated liquid handler. Plates were centrifugated (800 g, 2 min) and fluorescence intensity was measured using a PHERAstar plate reader (excitation 384 nm, emission 440 nm) in time increments of 150 s over 15 min. Slopes of fluorescence increase (m) were calculated with Microsoft Excel (vers. 16.56). Negative controls were prepared without macrocycle. An average of 12 negative controls was used to calculate residual activities using Equation I below: […]
where [S]0 is the initial substrate concentration and KM is the Michaelis-Menten constant^12 for the enzyme and substrate.

B1: FXII (Homo sapiens) (protein)
chain: VVGGLVALRGAHPYIAALYWGHSFCAGSLIAPCWVLTAAHCLQDRPAPEDLTVVLGQERRNHSCEPCQTLAVRSYRLHEAFSPVSYQHDLALLRLQEDADGSCALLSPYVQPVCLPSGAARPSETTLCQVAGWGHQFEGAEEYASFLQEAQVPFLSLERCSAPDVHGSSILPGMLCAGFLEGGTDACQGDSGGPLVCEDQAAERRLTLQGIISWGSGCGDRNKPGVYTDVAYYLAWIREHTVS
Question: Which Km does the source give for B1 here?
Answer: 260 ± 40 µM
